Assays:
LY1 Cells = experiment: in situ caspase-3 kit, caspase 3 activity and combination index (Example 5); type: cell-based; conditions: for Caspase 3 Activity: LY1 cells, 24 hrs
Description: (§1) In order to determine the effect of S-isomer of a compound of formula A, UBX, and combinations thereof on apoptosis in cancer cells, an in situ caspase-3 kit (Millipore) was used. CELLS were plated in a 6 well plate at a concentration of 0.5×10^6 cells/ml, treated with either S-isomer of a compound of formula A (200-5000 nM), UBX (10,000 ng/ml to 10 ng/ml), or UBX with S-isomer of a compound of formula A (as indicated), and incubated for 24 hrs at 37° C. and 5% CO2. The cells were then transferred to microfuge tubes to receive 10 μl of freshly prepared FLICA™ reagent and incubated for 1 hour at 37° C. and 5% CO2 away from light. After extensive washes with wash buffer, test samples were adjusted to equalize the number of cells in PBS. 100 μl of each cell suspension was transferred to black 96-well plates in duplicates, and the fluorescence was read at an excitation wavelength of 490 nm and an emission wavelength of 520 nm in a plate reader. The fluorescence intensity for a DMSO control was subtracted from that of test compounds. Data was expressed as caspase-3 activity a combination index (C.I.) calculated.

Raji Cells = experiment: as above; type: cell-based; conditions: 24 hrs; for Caspase 3 Activity: Raji cells
Description: as §1

[1] = system: U266B1, DB, Raji, and Daudi cells; experiment: cell cycle assay, flow cytometry, cell-lines tested; type: cell-based; conditions: 72 hrs
Description: A cell cycle assay reagent (Millipore) was used to determine the effect of S-isomer of a compound of formula A, UBX, and combinations thereof on the cell cycle in cancerous cells. In these experiments, cells were plated in a 6-well plate at a concentration of 0.5×10^6 cells/ml, treated with either S-isomer of a compound of formula A (10 μM to 0.1 μM), UBX (100 μg/ml to 0.1 μg/ml), or UBX with S-isomer of a compound of formula A at 1000 nM, and incubated for 72 hrs at 37° C. and 5% CO2. The cells were transferred to microfuge tubes to receive 50 μl of cell cycle reagent and incubated for 30 minutes at RT away from light. Cells were then diluted with 300-400 μl PBS, and a minimum of 10,000 events were acquired on a Guava® easyCyte™ flow cytometer. The data was analyzed with Express Pro software and the percentage of the cell population in different cell cycle stages with respect to control was presented in histograms.

CD19-positive cells = experiment: B cell depletion from human whole blood (HWB), flow cytometry, CD19; type: cell-based; conditions: 24 hrs
Description: (§2) A flow cytometry assay was used to compare the ability of S-isomer of compound of formula A, Ublituximab (Ubx), and combinations thereof to deplete B cells from human whole blood (HWB). In this assay, 50 μl of HWB sample was treated with either S-isomer of a compound of formula A (1000 nM), UBX (100 μg/ml to 0.1 μg/ml), or UBX in combination with S-isomer of a compound of formula A at 1000 nM and incubated for 24 hrs at 37° C. and 5% CO2. 20 μl of treated sample was taken in a 1.5 ml centrifuge tube and labeled with CD45 FITC and CD19 PE or CD20 FITC antibody and incubated in the dark for 1 hour at RT. 1 ml of red blood cell (RBC) lysing solution was added, and tubes were centrifuged at 3000 rpm for 10 minutes. […] The tubes were vortexed, and 5000 events were acquired on a Guava® easyCyte™ flow cytometer and analyzed with Incyte Software.
(§3) Gated population of CD45-positive cells were further analyzed for CD19. The number of cells that were positive for CD45 and CD19 was calculated, and the data was expressed as the percentage of CD19 positive cells in the population. CD20-positive populations were gated with fluorescence positive minus unlabeled cells, and the data was expressed as the percentage of CD20-positive cells in the population. The loss of CD19/CD20 population from control was calculated and expressed as % depletion with respect to control.

CD20+ cells = experiment: LPS-induced proliferation in HWB, flow cytometry, CD20; type: cell-based; conditions: Homo sapiens, 72 hrs
B-cells = experiment: cytotoxicity to B-cells; type: cell-based; conditions: concentrations up to 10 μM
CD20-positive cells = experiment: B cell depletion from human whole blood (HWB), flow cytometry, CD20; type: cell-based; conditions: 24 hrs
Description: as §2, §3

CD19+ B-cell = experiment: LPS-induced proliferation in HWB, flow cytometry, CD19; type: cell-based, human; conditions: 72 hrs
Description: Flow cytometry was used to study the effect of S-isomer of a compound of formula A, Ubx, and combinations thereof on LPS-induced proliferation of CD19 and CD20 cells in HWB. In these experiments, 250 μl of diluted (1:3.5 with RPMI-HG Media) HWB sample was treated with either S-isomer of a compound of formula A (10 μM to 0.1 μM), UBX (100 μg/ml to 0.1 μg/ml) or UBX with S-isomer of a compound of formula A at 1000 nM for 15 minutes followed by 20 μg/ml LPS induction and incubated for 72 hrs at 37° C. and 5% CO2. 20 μl of treated sample was taken in a 1.5 ml centrifuge tube and labeled with CD20 FITC and CD19 PE antibody and incubated in the dark for 1 hour at RT. 1 ml of RBC lysing solution was added and tubes were centrifuged at 3000 rpm for 10 minutes. Supernatant was aspirated, and 250 μl of PBS was added to the pellet. Tubes were vortexed, and 5000 events were acquired on a Guava® easyCyte™ flow cytometer and analyzed with Incyte Software.
Gated population of lymphocytes positive cells were further analyzed for CD19 and CD20. Cells positive for CD19 and/or CD20 were calculated, and data were expressed as the percentage positive cells in the population. The loss of positive population from control with LPS induction was calculated and expressed as % inhibition with respect to control.

CC(C)Oc1ccc(-c2nn([C@@H](C)c3oc4ccc(F)cc4c(=O)c3-c3cccc(F)c3)c3ncnc(N)c23)cc1F [S-isomer, (S)-2-(1-(4-amino-3-(3-fluoro-4-isopropoxyphenyl)-1H-pyrazolo[3,4-d]pyrimidin-1-yl)ethyl)-6-fluoro-3-(3-fluorophenyl)-4H-chromen-4-one]
Caspase 3 Activity (LY1 Cells; S-isomer 200 nM): 0.06 | Caspase 3 Activity (LY1 Cells; S-isomer 1000 nM): 0.17 | Caspase 3 Activity (LY1 Cells; S-isomer 5000 nM): 0.61 | Caspase 3 Activity (Raji Cells; S-isomer 200 nM): 0.36 | Caspase 3 Activity (Raji Cells; S-isomer 1000 nM): 0.56 | Caspase 3 Activity (Raji Cells; S-isomer 5000 nM): 0.80 | cell cycle effect [1]: dose-dependent G2/M arrest | reduction in CD19-positive HWB B-cells (CD19-positive cells; 1 μM): not observed | inhibition at 1 µM (CD20+ cells): ~40% | cytotoxic to B-cells (B-cells): not cytotoxic | reduction in CD20-positive HWB B-cells (CD20-positive cells; 1 μM): not observed | inhibition at 1 µM (CD19+ B-cell; Homo sapiens, B-cell, 1 μM): ~60%

B1: UBX: monoclonal antibody that targets a specific and unique epitope on CD20, bioengineered for enhanced clinical activity and potency (antibody, V domains shown)
VH: QAYLQQSGAELVRPGASVKMSCKASGYTFTSYNMHWVKQTPRQGLEWIGGIYPGNGDTSYNQKFKGKATLTVGKSSSTAYMQLSSLTSEDSAVYFCARYDYNYAMDYWGQGTSVTVSS
VL: QIVLSQSPAILSASPGEKVTMTCRASSSVSYMHWYQQKPGSSPKPWIYATSNLASGVPARFSGSGSGTSYSFTISRVEAEDAATYYCQQWTFNPPTFGGGTRLEIK
modifications: antibody fragment
caspase-3 activity (LY1 Cells; LY1, 24 hrs): induced | Caspase 3 Activity (LY1 Cells; UBX 10 ng/ml): 0.23 | Caspase 3 Activity (LY1 Cells; UBX 100 ng/ml): 0.32 | Caspase 3 Activity (LY1 Cells; UBX 1000 ng/ml): 0.53 | Caspase 3 Activity (LY1 Cells; UBX 10,000 ng/ml): 0.59 | Caspase 3 Activity (Raji Cells; UBX 10 ng/ml): 0.18 | Caspase 3 Activity (Raji Cells; UBX 100 ng/ml): 0.31 | Caspase 3 Activity (Raji Cells; UBX 1000 ng/ml): 0.51 | Caspase 3 Activity (Raji Cells; UBX 10,000 ng/ml): 0.60 | caspase-3 activity (Raji Cells; Raji): induced | depletion of B-cells (CD19-positive cells; human whole blood, doses from 1 to 100,000 ng/ml): 20-30% | reduction in CD20+ B-cells (CD20-positive cells; human whole blood): dose-dependent reduction | effect on CD19+ cells (LPS-induced proliferation) (CD19+ B-cell): minimal effect
